# Publication PMC11775607 (Nucleic Acids Research, 2025)
# B1: recombinant MRPP3-His fusion protein (230–583 amino acids of MRPP3) (domain or fragment)
# chain: LLLLEDIKKVITPSKKNYNDCIQGALLHQDVNTAWNLYQELLGHDIVPMLETLKAFFDFGKDIKDDNYSNKLLDILSYLRNNQLYPGESFAHSIKTWFESVPGKQWKGQFTTVRKSGQCSGCGKTIESIQLSPEEYECLKGKIMRDVIDGGDQYRKTTPQELKRFENFIKSRPPFDVVIDGLNVAKMFPKVRESQLLLNVVSQLAKRNLRLLVLGRKHMLRRSSQWSRDEMEEVQKQASCFFADDISEDDPFLLYATLHSGNHCRFITRDLMRDHKACLPDAKTQRLFFKWQQGHQLAIVNRFPGSKLTFQRILSYDTVVQTTGDSWHIPYDEDLVERCSCEVPTKWLCLHQKT
# Molecular target: recombinant WBSCR16-GST fusion protein (mouse, UniProt Q9CYF5 35-461)
# Assay: SPR
binder,measurement,value
B1,Kd,37 nM
